In PMC7026339, “Human bone morphogenetic protein-2 (hBMP-2) characterization by physical–chemical, immunological and biological assays” (AMB Express, 2020):

B1: CHO-derived hBMP-2 (Infuse, Medtronic), 114 amino acid glycosylated subunit (form A) (natural protein, human, UniProt P12643 283-396, looked up)
chain: QAKHKQRKRLKSSCKRHPLYVDFSDVGWNDWIVAPPGYHAFYCHGECPFPLADHLNSTNHAIVQTLVNSVNSKIPKACCVPTELSAISMLYLDENEKVVLKNYQDMVVEGCGCR
modifications: glycosylated at one site with high-mannose-type glycans
notes: human bone morphogenetic protein-2, authentic mature protein of 114 AA without initial Met (backbone 12,905 Da); Infuse is a disulfide-linked dimeric protein with two major subunit species of 114 and 131 amino acids; this molecule is the 114 AA subunit; also called 14,377 Da form; 114 AA monomer
B2: E. coli-derived methionyl-human bone morphogenetic protein-2 (met-hBMP-2, GenScript) (natural protein)
chain: MQAKHKQRKRLKSSCKRHPLYVDFSDVGWNDWIVAPPGYHAFYCHGECPFPLADHLNSTNHAIVQTLVNSVNSKIPKACCVPTELSAISMLYLDENEKVVLKNYQDMVVEGCGCR
notes: initial methionine of methionyl-hBMP-2 (printed as 'initial Met'); human bone morphogenetic protein-2, mature protein of 114 AA (theoretical backbone 12,905 Da without the initial Met; 13,036 Da with it); theoretical mass of the dimer 26,072 Da; also called E. coli-derived hBMP-2; GenScript preparation; source: bought: GenScript (from E. coli), lyophilized, reconstituted in 20 mM acetic acid

Molecular target: the molecule itself
Assay: SDS-PAGE and Western blotting under non-reducing conditions; 15% acrylamide gel, Coomassie Blue G stain; Western blot with anti-hBMP-2 rabbit IgG; non-reducing conditions; shows the disulfide-linked dimer

| Protein | stoichiometry N |
| --- | --- |
| B1 | 2 |
| B2 | 2 |
